Each sequence was assayed against T1, Fur (ferric uptake regulator) (Shewanella piezotolerans WP3) (UniProt B8CQZ2) (assay: EMSA). Settings: 40 mM KCl, 12.5 mM Tris pH 7.5, 125 uM MnCl2, 1.25 mM MgCl2, 5% glycerol, 0.5 mM DTT, 0.01% BSA, 50 ug/ml salmon sperm DNA, 20 C, 30 min; ~0.2 pmol probe and ….
T1 sequence: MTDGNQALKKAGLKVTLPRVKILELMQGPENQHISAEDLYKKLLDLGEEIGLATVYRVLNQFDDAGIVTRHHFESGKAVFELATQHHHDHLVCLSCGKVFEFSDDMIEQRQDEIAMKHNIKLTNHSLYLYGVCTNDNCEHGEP

Row | Sequence | binding
1 | ATAGAGGGGAGCCATAACGGCGAAGGTTACATGGAACTCACCGGCTACTAAGCCGTAACAACCACTCAAACATAAGCTTTATGAAGTATGTAATTGCATTCAAAAAGCAATAGATAAGAATAATTATCATTTACTAAGCTTATGAATATCTTGGATATTTAATGTAGCGCAAGCTAACATTTCGAGTGGACAAAATTCAAACAAGCTTCTAGTCTTTATTGGTAAATTTGAGAACTAGATCACCCCCTAAAAGTTGATCTTGGTCGAT (double strand) [napD (swp4456) promoter] | binds
2 | TGACCTTAATCACATAAAGCATCTAAAACACCTGCTAAAAATTACGCTGTTAGTTAGCCTTAGAGGTGGAAATAAAATTCCACACACTAAATAAGGGTAAATGAGATTTGTTCTCAAACTAATTCCCTTTTTAGTGATGATTAAAAAACTATTGCAGGGACAAAAATGATGAAATTTTTCAACTTAAGCGCGACTTCAAAAGCGCTACTTACGGCAGGGGTGCTTTCGTTAGCAGTTTCTGGCTGTAGTGGC (double strand) [omcA (swp3277) promoter] | binds
3 | CAGGCTGTAATTGACCTTTTTACACGCAGCAAATAACTGCTTTTTTTGCTGTTCATCAAGTAAAGAGATGAGGGTTCCCGGCACGTTACATTCCTTGGCTTGATAATAATCAAGAGGTGAAGTTTGCTATTCAAGATATAGTGCAAATGATAATCATTATTAATAAAAGTGCAACATATAAAGGGAGCGATTATGGAAGCGATAAGTCCTGCTTTTCGATGGATAAGCGTGATAGCGA (double strand) [Crp-like regulator (swp3806) promoter] | binds
4 | TTATTACGTGCAATAAGAAGCTTTAACTTTGCTGAGATAAACAATGAAAGAGGAGTTTCTATCAAACTTTAAATGAATGATACAGCTTGATTTGTTTGTGATCTTTTTGCTTTTGATGGTTACAGGTTTGTTAGTGTTGTGCGCGAGTTCACATTGACAATGTAAATACACGTAAAGAAGTATGAATAAAAACAATTCTCATTTATATTGCAGCCAATTATTAAATGTAGCTTTCATTTTTGGGGTTGGTTATGTCTTTTCAGGCGTCTT (double strand) [TonB receptor (swp5150) promoter] | binds

From PMC3790847
